From patent US20250059278A1 (SICHUAN HUIYU PHARMACEUTICAL, published 2025)
Numbering of substitutions follows the chain as printed.

B1: CD3 monoclonal antibody M19 (antibody, human IgG1, lambda, V domains shown)
VH: EVQLVESGGGLVQPGGSLRLSCAASGFTFNTYAMNWVRQAPGKGLEWVARIRSKYNNYATYYADSVKDRFTISRDDSKSILYLQMNSLKTEDTAVYYCVRHGNFGNSAVSWFQYWGQGTLVTVSS
VL: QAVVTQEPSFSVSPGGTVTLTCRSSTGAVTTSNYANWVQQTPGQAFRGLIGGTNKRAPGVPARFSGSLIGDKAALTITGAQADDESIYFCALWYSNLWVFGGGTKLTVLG
notes: IgG: VH19 + IgG1 mutant CH, VL-1 + CL
B2: CD3 monoclonal antibody M30 (antibody, human IgG1, lambda, V domains shown)
VH: B1 VH with V95M, G102S, S107G, A108Y, Q113A
VL: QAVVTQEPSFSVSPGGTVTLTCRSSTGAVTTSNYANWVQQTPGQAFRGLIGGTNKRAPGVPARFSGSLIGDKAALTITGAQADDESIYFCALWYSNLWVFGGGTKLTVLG
notes: IgG: VH30 + IgG1 mutant CH, VL-1 + CL
B3: CD3 monoclonal antibody M29 (antibody, human IgG1, lambda, V domains shown)
VH: B1 VH with D68G, V95M, G105P, N106M, A108Y, Q113A
VL: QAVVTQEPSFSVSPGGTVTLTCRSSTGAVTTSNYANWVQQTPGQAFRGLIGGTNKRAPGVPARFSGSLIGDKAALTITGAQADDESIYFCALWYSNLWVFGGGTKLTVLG
notes: IgG: VH29 + IgG1 mutant CH, VL-1 + CL
B4: CD3 monoclonal antibody M45 (antibody, human IgG1, lambda, V domains shown)
VH: B1 VH with I80S, S87N, V95M, G102S, A108Y
VL: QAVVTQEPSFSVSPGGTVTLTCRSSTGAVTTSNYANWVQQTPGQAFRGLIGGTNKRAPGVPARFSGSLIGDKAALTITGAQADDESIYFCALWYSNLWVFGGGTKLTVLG
notes: IgG: VH45 + IgG1 mutant CH, VL-1 + CL
B5: CD3 monoclonal antibody M35 (antibody, human IgG1, lambda, V domains shown)
VH: B1 VH with I80S, S87N, G102S, A108Y, F112W, Q113A
VL: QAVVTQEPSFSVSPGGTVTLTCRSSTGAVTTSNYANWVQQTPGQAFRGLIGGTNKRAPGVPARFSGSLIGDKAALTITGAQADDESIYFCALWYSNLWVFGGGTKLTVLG
notes: IgG: VH35 + IgG1 mutant CH, VL-1 + CL
B6: CD3 monoclonal antibody M46 (antibody, human IgG1, lambda, V domains shown)
VH: B1 VH with V95M, G102A, A108Y, Q113A, Y114S
VL: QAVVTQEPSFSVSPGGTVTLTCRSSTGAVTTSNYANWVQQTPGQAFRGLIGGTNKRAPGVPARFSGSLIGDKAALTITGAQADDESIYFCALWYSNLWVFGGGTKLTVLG
notes: IgG: VH46 + IgG1 mutant CH, VL-1 + CL
B7: CD3 monoclonal antibody M25 (antibody, human IgG1, lambda, V domains shown)
VH: B1 VH with V95M, A108R, Q113A
VL: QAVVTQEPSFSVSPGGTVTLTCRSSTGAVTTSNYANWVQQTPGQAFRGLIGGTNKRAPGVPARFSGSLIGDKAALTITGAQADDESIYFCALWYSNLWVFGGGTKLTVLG
notes: IgG: VH25 + IgG1 mutant CH, VL-1 + CL
B8: CD3 monoclonal antibody M36 (antibody, human IgG1, lambda, V domains shown)
VH: B1 VH with I80S, V95M, G102S, G105P, A108Y, Q113A
VL: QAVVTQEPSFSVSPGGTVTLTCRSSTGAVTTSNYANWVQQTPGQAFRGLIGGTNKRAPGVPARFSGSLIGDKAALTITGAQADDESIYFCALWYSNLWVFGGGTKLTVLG
notes: IgG: VH36 + IgG1 mutant CH, VL-1 + CL
B9: CD3 monoclonal antibody M24 (antibody, human IgG1, lambda, V domains shown)
VH: B1 VH with D68G, G102S, N106R, A108Y, Q113A
VL: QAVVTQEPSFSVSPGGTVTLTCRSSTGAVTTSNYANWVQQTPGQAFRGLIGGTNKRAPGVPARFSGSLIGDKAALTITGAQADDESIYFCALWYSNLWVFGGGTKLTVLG
notes: IgG: VH24 + IgG1 mutant CH, VL-1 + CL
B10: CD3 monoclonal antibody M34 (antibody, human IgG1, lambda, V domains shown)
VH: B1 VH with D68G, I80S, S87N, G105K, N106Q, A108Y, Q113A
VL: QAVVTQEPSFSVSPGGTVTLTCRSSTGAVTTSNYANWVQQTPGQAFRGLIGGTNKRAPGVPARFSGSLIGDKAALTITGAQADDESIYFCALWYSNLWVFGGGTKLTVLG
notes: IgG: VH34 + IgG1 mutant CH, VL-1 + CL
B11: CD3 monoclonal antibody M37 (antibody, human IgG1, lambda, V domains shown)
VH: B1 VH with S87N, V95M, G102A, G105S, A108Y, Q113A
VL: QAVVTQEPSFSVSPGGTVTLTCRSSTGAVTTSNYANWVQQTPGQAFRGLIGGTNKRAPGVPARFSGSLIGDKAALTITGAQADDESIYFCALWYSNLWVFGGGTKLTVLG
notes: IgG: VH37 + IgG1 mutant CH, VL-1 + CL
B12: CD3 monoclonal antibody M43 (antibody, human IgG1, lambda, V domains shown)
VH: B1 VH with V95M, H101P, G105P, A108Y, Q113A, Y114L
VL: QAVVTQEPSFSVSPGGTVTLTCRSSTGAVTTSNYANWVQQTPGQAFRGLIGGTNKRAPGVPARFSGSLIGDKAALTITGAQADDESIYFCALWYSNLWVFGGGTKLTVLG
notes: IgG: VH43 + IgG1 mutant CH, VL-1 + CL
B13: CD3 monoclonal antibody M44 (antibody, human IgG1, lambda, V domains shown)
VH: B1 VH with I80S, S87N, V95M, G105Q, A108Y, V109I, Q113A
VL: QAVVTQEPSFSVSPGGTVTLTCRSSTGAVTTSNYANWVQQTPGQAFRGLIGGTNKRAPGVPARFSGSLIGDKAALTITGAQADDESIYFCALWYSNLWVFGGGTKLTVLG
notes: IgG: VH44 + IgG1 mutant CH, VL-1 + CL
B14: CD3 monoclonal antibody M41 (antibody, human IgG1, lambda, V domains shown)
VH: B1 VH with D68G, I80S, S87N, V95M, G102S, G105Q, A108Y, Q113A
VL: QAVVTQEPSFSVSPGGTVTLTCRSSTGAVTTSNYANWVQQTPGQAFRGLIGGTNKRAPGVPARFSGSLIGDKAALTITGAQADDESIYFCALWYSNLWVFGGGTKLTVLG
notes: IgG: VH41 + IgG1 mutant CH, VL-1 + CL
B15: CD3 monoclonal antibody M38 (antibody, human IgG1, lambda, V domains shown)
VH: B1 VH with I80S, S87N, G105L, A108Y
VL: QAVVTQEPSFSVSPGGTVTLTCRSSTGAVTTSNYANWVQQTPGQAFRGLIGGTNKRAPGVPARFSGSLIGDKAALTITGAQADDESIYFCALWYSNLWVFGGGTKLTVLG
notes: IgG: VH38 + IgG1 mutant CH, VL-1 + CL
B16: CD3 monoclonal antibody M21 (antibody, human IgG1, lambda, V domains shown)
VH: B1 VH with D68G, I80S, V95M, G102S, S107T, A108Y, Q113A
VL: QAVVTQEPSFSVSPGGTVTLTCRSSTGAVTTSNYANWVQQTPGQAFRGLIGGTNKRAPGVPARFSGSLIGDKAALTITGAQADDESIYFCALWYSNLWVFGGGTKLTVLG
notes: IgG: VH21 + IgG1 mutant CH, VL-1 + CL
B17: CD3 monoclonal antibody M32 (antibody, human IgG1, lambda, V domains shown)
VH: B1 VH with D68G, I80S, G102S, A108R, Q113A
VL: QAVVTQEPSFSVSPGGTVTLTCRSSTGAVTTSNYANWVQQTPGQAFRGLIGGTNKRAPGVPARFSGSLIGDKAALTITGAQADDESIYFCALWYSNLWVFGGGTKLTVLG
notes: IgG: VH32 + IgG1 mutant CH, VL-1 + CL
B18: CD3 monoclonal antibody M22 (antibody, human IgG1, lambda, V domains shown)
VH: B1 VH with D68G, V95M, G102E, N103R, A108Y, Q113A
VL: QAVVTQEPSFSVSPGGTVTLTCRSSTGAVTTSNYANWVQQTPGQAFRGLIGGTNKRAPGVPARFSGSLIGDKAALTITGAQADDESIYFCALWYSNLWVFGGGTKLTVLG
notes: IgG: VH22 + IgG1 mutant CH, VL-1 + CL
B19: CD3 monoclonal antibody M40 (antibody, human IgG1, lambda, V domains shown)
VH: B1 VH with I80S, S87N, V95M, H101A, A108Y
VL: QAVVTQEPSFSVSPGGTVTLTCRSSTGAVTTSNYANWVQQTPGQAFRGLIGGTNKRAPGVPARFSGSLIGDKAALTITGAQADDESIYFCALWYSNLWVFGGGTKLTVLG
notes: IgG: VH40 + IgG1 mutant CH, VL-1 + CL
B20: CD3 monoclonal antibody M39 (antibody, human IgG1, lambda, V domains shown)
VH: B1 VH with I80S, S87N, V95M, G102Q, A108Y
VL: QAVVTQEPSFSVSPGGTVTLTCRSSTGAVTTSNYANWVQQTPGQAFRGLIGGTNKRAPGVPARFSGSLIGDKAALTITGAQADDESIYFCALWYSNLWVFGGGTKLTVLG
notes: IgG: VH39 + IgG1 mutant CH, VL-1 + CL
B21: CD3 monoclonal antibody M42 (antibody, human IgG1, lambda, V domains shown)
VH: B1 VH with D68G, I80S, S87N, V95M, G105Q, A108Y
VL: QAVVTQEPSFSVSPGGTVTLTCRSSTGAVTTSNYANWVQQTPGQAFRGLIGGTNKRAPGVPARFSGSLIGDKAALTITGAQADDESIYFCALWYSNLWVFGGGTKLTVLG
notes: IgG: VH42 + IgG1 mutant CH, VL-1 + CL
B22: CD3 monoclonal antibody M31 (antibody, human IgG1, lambda, V domains shown)
VH: B1 VH with D68G, S87N, G102S, A108Y, Q113E
VL: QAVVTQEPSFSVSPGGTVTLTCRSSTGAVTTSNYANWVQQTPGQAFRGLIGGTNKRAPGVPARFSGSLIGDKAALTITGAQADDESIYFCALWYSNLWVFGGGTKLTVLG
notes: IgG: VH31 + IgG1 mutant CH, VL-1 + CL
B23: CD3 monoclonal antibody M27 (antibody, human IgG1, lambda, V domains shown)
VH: B1 VH with D68G, V95M, G102A, A108Y, Q113A, Y114S
VL: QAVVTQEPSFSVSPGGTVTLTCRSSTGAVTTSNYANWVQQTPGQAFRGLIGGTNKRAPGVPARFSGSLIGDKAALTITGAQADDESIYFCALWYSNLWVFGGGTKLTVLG
notes: IgG: VH27 + IgG1 mutant CH, VL-1 + CL
B24: CD3 monoclonal antibody M23 (antibody, human IgG1, lambda, V domains shown)
VH: B1 VH with D68G, V95M, G102S, G105L, A108Y, Q113A
VL: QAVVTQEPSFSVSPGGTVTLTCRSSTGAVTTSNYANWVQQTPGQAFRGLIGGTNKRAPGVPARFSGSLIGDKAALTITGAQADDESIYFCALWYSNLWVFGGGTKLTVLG
notes: IgG: VH23 + IgG1 mutant CH, VL-1 + CL
B25: CD3 monoclonal antibody M33 (antibody, human IgG1, lambda, V domains shown)
VH: B1 VH with D68G, I80S, S107N, A108Y, Q113A, Y114S
VL: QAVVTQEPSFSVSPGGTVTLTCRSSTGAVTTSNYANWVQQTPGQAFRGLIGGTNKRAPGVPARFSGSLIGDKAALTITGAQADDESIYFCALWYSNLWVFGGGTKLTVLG
notes: IgG: VH33 + IgG1 mutant CH, VL-1 + CL
B26: CD3 monoclonal antibody M20 (antibody, human IgG1, lambda, V domains shown)
VH: B1 VH with I80S, A108Y
VL: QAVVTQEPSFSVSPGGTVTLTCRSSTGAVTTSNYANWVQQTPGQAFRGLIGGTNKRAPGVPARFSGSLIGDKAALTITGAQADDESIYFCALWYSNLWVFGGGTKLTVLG
notes: IgG: VH20 + IgG1 mutant CH, VL-1 + CL
B27: CD3 monoclonal antibody M26 (antibody, human IgG1, lambda, V domains shown)
VH: B1 VH with S87N, V95M, A108Q
VL: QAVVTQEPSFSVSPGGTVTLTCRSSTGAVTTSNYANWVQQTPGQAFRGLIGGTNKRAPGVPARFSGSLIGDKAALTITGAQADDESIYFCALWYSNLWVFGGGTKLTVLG
notes: IgG: VH26 + IgG1 mutant CH, VL-1 + CL
B28: Positive control bispecific antibody OKT3-3C6 (bispecific antibody, human IgG1, lambda)
heavy: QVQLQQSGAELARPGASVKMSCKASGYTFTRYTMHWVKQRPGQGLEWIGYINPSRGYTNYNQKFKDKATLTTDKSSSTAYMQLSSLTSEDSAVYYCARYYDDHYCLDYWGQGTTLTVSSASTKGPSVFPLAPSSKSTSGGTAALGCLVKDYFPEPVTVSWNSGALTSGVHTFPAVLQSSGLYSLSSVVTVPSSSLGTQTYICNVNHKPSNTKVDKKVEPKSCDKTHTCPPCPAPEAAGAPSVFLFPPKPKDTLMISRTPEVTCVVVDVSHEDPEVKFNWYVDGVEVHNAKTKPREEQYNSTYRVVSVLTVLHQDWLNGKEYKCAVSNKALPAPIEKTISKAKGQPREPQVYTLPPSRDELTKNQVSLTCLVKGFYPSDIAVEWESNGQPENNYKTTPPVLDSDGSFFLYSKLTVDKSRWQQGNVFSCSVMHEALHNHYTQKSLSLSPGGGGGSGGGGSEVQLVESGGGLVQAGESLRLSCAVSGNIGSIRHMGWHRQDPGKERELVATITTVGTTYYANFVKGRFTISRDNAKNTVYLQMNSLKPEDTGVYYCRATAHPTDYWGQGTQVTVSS
light: QIVLTQSPAIMSASPGEKVTMTCSASSSVSYMNWYQQKSGTSPKRWIYDTSKLASGVPAHFRGSGSGTSYSLTISGMEAEDAATYYCQQWSSNPFTFGSGTKLEIGQPKAAPSVTLFPPSSEELQANKATLVCLISDFYPGAVTVAWKADSSPVKAGVETTTPSKQSNNKYAASSYLSLTPEQWKSHRSYSCQVTHEGSTVEKTVAPTECS

target: T1, Human CD3εγ recombinant antigen (acrobiosystems, Cat. No. CDG-H52W5) (human, UniProt P07766 23-126; P09693 23-116); assay: SPR chip (Carterra), antibody captured, antigen in flow;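 also: antibodies captured through anti-human IgG Fc at roughly 1000 RU, kinetic constants fitted with a 1:1 binding model in Carterra analysis software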
T1 construct: Bought recombinant protein
Protocol: Antibodies at three concentrations of 4, 2, and 1 μg/mL were immobilized on the HC200M chip containing anti-human IgG Fc secondary antibody (Xantec, Cat. No.: HC200M), and the antibody binding amount was controlled to approximately 1000RU. […] The kinetic constants were obtained by fitting using the 1:1 binding model of Kinetics software from Carterra.

Row | Binder | Kd [nM] | koff [s⁻¹] | kon [M⁻¹ s⁻¹]
1 | B1 | 1.57 | 0.00256 | 1.63e+06
2 | B2 | 2.93 | 0.00234 | 798000
3 | B3 | 5.88 | 0.00776 | 1.32e+06
4 | B4 | 1.87 | 0.00344 | 1.85e+06
5 | B5 | 0.842 | 0.00283 | 3.36e+06
6 | B6 | 2.05 | 0.00205 | 999000
7 | B7 | 5.27 | 0.0048 | 910000
8 | B8 | 1.69 | 0.0109 | 6.46e+06
9 | B9 | 1.06 | 0.00358 | 3.38e+06
10 | B10 | 7.22 | 0.0034 | 471000
11 | B11 | 5.31 | 0.0043 | 810000
12 | B12 | 13.3 | 0.0016 | 120000
13 | B13 | 3.33 | 0.00334 | 1e+06
14 | B14 | 1.52 | 0.00513 | 3.38e+06
15 | B15 | 2.33 | 0.00268 | 1.15e+06
16 | B16 | 3.71 | 0.00649 | 1.75e+06
17 | B17 | 4.37 | 0.0133 | 3.05e+06
18 | B18 | 3.33 | 0.00222 | 666000
19 | B19 | 1.28 | 0.00055 | 431000
20 | B20 | 29.7 | 0.0305 | 1.02e+06
21 | B21 | 1.15 | 0.00137 | 1.19e+06
22 | B22 | 0.43 | 0.00126 | 2.92e+06
23 | B23 | 2.44 | 0.0028 | 1.15e+06
24 | B24 | 1.57 | 0.00549 | 3.5e+06
25 | B25 | 19.3 | 0.0054 | 280000
26 | B26 | 2.56 | 0.00232 | 908000
27 | B27 | 3.51 | 0.00543 | 1.55e+06

target: T2, Human CD3 on Jurkat cells (human, UniProt P07766 23-207; P09693 23-182; P04234 22-171); assay: flow cytometry on Jurkat cells
T2 construct: whole, on cells; also called Human CD3-expressing Jurkat cells; Jurkat (naturally expressing human CD3)

Row | Binder | EC50 [nM]
28 | B1 | 0.19
29 | B2 | 0.302
30 | B3 | 0.412
31 | B4 | 0.415
32 | B5 | 0.792
33 | B6 | 0.338
34 | B7 | 0.0954
35 | B8 | 0.198
36 | B9 | 1.32
37 | B10 | 2.58
38 | B11 | 0.211
39 | B12 | 10.2
40 | B13 | 1.61
41 | B14 | 0.751
42 | B15 | 0.176
43 | B16 | 41.6
44 | B17 | 0.188
45 | B18 | 2.55
46 | B19 | 3.41
47 | B20 | 0.759
48 | B21 | 0.431
49 | B22 | 1.56
50 | B23 | 0.403
51 | B24 | 0.186
52 | B25 | 4.92
53 | B26 | 61.7
54 | B27 | 0.235

target: T2, Human CD3 on Jurkat cells; assay: flow cytometry on Jurkat cells; remark: another data set of the same source

Row | Binder | EC50 [nM]
55 | B28 | 0.0736

target: T3, Monkey CD3 on cynomolgus HSC-F cells (cynomolgus monkey, UniProt Q95LI5 22-198; Q95LI7 23-181; Q95LI8 22-171); assay: flow cytometry on HSC-F cells
T3 construct: whole, on cells; also called Monkey CD3-expressing cynomolgus HSC-F cells; cynomolgus monkey CD3-expressing HSC-F cells

Row | Binder | EC50 [nM]
56 | B1 | 0.238
57 | B2 | 0.347
58 | B3 | 0.272
59 | B4 | 0.156
60 | B5 | 0.207
61 | B6 | 0.148
62 | B7 | 0.111
63 | B8 | 0.109
64 | B9 | 0.12
65 | B10 | 0.266
66 | B11 | 0.398
67 | B12 | 8.24
68 | B13 | 0.141
69 | B14 | 0.13
70 | B15 | 0.161
71 | B16 | 1.23
72 | B17 | 0.0667
73 | B18 | 2.31
74 | B19 | 0.407
75 | B20 | 0.498
76 | B21 | 0.143
77 | B22 | 0.154
78 | B23 | 0.165
79 | B24 | 0.164
80 | B25 | 1.55
81 | B26 | 6.58
82 | B27 | 0.223

target: T3, Monkey CD3 on cynomolgus HSC-F cells; assay: flow cytometry on HSC-F cells; remark: another data set of the same source

Row | Binder | binding result
83 | B28 | no binding (tested: 2 µg/ml starting concentration)
